# Measurements: patent US20120021972A1 (CADILA HEALTHCARE, published 2012)
# Starred links: 1 amine or outer side, 2 acyl side, 3 side chain; linkers in the order of their positions; H or OH if unused. Non-standard residues stand in square brackets, D forms with d. No end group written: not given here. *: point of attachment. NMe2F‑APPA = N-methyl-2-amino-5-(2-fluorophenyl)pentanoic acid, CN([C@@H](CCCc1ccccc1F)C(=O)[*:2])[*:1]; 2,4‑diF‑APPA = 2-amino-5-(2,4-difluorophenyl)pentanoic acid, O=C([C@H](CCCc1ccc(F)cc1F)N[*:1])[*:2]; AMCB = 2-amino-5-(4-chloro-2-methylphenyl)pentanoic acid, Cc1cc(Cl)ccc1CCC[C@H](N[*:1])C(=O)[*:2]; Bip(2'-Et-4'-OMe) = CCc1cc(OC)ccc1-c1ccc(C[C@H](N)C(=O)O)cc1; Leu(5,5,5,5',5',5'-F6) = N[C@@H](CC(C(F)(F)F)C(F)(F)F)C(=O)O; 2F‑APPA = 2-amino-5-(2-fluorophenyl)pentanoic acid; αMePhe(2-F) = C[C@](N)(Cc1ccccc1F)C(=O)O; NMeBip(OMe) = N-methylated Bip(OMe); hhPhe = N[C@@H](CCCc1ccccc1)C(=O)O; 2,4‑diCl‑APPA = not defined here; NMeD = CN[C@@H](CC(=O)O)C(=O)O; aThr = C[C@H](O)[C@H](N)C(=O)O; αMeP = C[C@@]1(C(=O)O)CCCN1; NMeAPPA = not defined here; Ac5c = NC1(C(=O)O)CCCC1; CNB = not defined here; Aib = CC(C)(N)C(=O)O; Moc = COC(=O)*
# Target: human glucagon receptor (human, UniProt P47871 26-477)
# Experiment: cell-based or functional assay
Binder,"inhibition of cAMP production, 1 nM","inhibition of cAMP production, 10 nM","inhibition of cAMP production, 100 nM","inhibition of cAMP production, 1 µM","inhibition of cAMP production, 10 µM"
H[Aib][CNB]G[aThr][αMePhe(2-F)][aThr]SD[Bip(2'-Et-4'-OMe)][NMe2F‑APPA] (reading uncertain) [Seq. ID. No. 132: H-Aib-(CNB)-G-T(allo)-(α-Me-2F-Phe)-T(allo)-SD-Bip(OMe)-((NMe)(2F-APPA))],15 pmol/ml/µg prt,12 pmol/ml/µg prt,8 pmol/ml/µg prt,4 pmol/ml/µg prt,2 pmol/ml/µg prt
Moc-H[Aib][CNB]GT[αMePhe(2-F)]TSD[Bip(2'-Et-4'-OMe)][2F‑APPA] (reading uncertain) [Seq. ID. No. 208: CH3OCO-H-Aib-(CNB)-GT-(α-Me-2F-Phe)-TSD-Bip(OMe)-(2F-APPA)],5 pmol/ml/µg prt,3 pmol/ml/µg prt,1 pmol/ml/µg prt,0 pmol/ml/µg prt,0 pmol/ml/µg prt
Moc-H[Aib]QGT[αMePhe(2-F)]TSD[Bip(2'-Et-4'-OMe)][hhPhe] (also: thioamide bonds between residues 9-10 and 10-11) [Seq. ID. No. 170: CH3OCO-H-Aib-QGT-(α-Me-2F-Phe)-TSD-(C═S)-Bip(OMe)-(C═S)-(APPA)],6 pmol/ml/µg prt,5 pmol/ml/µg prt,2 pmol/ml/µg prt,0 pmol/ml/µg prt,0 pmol/ml/µg prt
H[αMeP]QGTFTSD[Bip(2'-Et-4'-OMe)][hhPhe] [Seq. ID. No. 9: H-(α-Me-Pro)-QGTFTSD-Bip(OMe)-(APPA)],5 pmol/ml/µg prt,3 pmol/ml/µg prt,0 pmol/ml/µg prt,0 pmol/ml/µg prt,0 pmol/ml/µg prt
"Ac-H[Aib][Leu(5,5,5,5',5',5'-F6)]GT[αMePhe(2-F)]TSD[Bip(2'-Et-4'-OMe)][2F‑APPA] [Seq. ID. No. 212: CH3CO-H-Aib-(Hfl)-GT-(α-Me-2F-Phe)-TSD-Bip(OMe)-(2F-APPA)]",10 pmol/ml/µg prt,8 pmol/ml/µg prt,6 pmol/ml/µg prt,4 pmol/ml/µg prt,1 pmol/ml/µg prt
Ac-H[Aib]QGT[αMePhe(2-F)]TSD[Bip(2'-Et-4'-OMe)][2F‑APPA] (also: reduced (CH2) bonds between 9-10 and 10-11) [Seq. ID. No. 195: CH3CO-H-Aib-QGT-(α-Me-2F-Phe)-TSD-(CH2)-Bip(OMe)-(CH2)-(2F-APPA)],15 pmol/ml/µg prt,12 pmol/ml/µg prt,8 pmol/ml/µg prt,4 pmol/ml/µg prt,2 pmol/ml/µg prt
Moc-H[Aib]QG[aThr][αMePhe(2-F)][aThr]S[NMeD][NMeBip(OMe)][NMeAPPA] (reading uncertain),10 pmol/ml/µg prt,8 pmol/ml/µg prt,6 pmol/ml/µg prt,4 pmol/ml/µg prt,1 pmol/ml/µg prt

# The next lines start with the values.
"inhibition of cAMP production, 1 nM","inhibition of cAMP production, 10 nM","inhibition of cAMP production, 100 nM","inhibition of cAMP production, 1 µM","inhibition of cAMP production, 10 µM",Binder
14 pmol/ml/µg prt,11 pmol/ml/µg prt,7 pmol/ml/µg prt,3 pmol/ml/µg prt,0 pmol/ml/µg prt,Ac-H[Aib]QG[aThr][αMePhe(2-F)][aThr]SD[Bip(2'-Et-4'-OMe)][hhPhe] (also: reduced (CH2) bonds between 9-10 and 10-11) [Seq. ID. No. 197: CH3CO-H-Aib-QG-T(allo)-(α-Me-2F-Phe)-T(allo)-SD-(CH2)-Bip(OMe)-(CH2)-(APPA)]
5 pmol/ml/µg prt,3 pmol/ml/µg prt,0 pmol/ml/µg prt,0 pmol/ml/µg prt,0 pmol/ml/µg prt,"HSQGTFTSD[Bip(2'-Et-4'-OMe)][2,4‑diCl‑APPA] (reading uncertain) [Seq. ID. No. 51: HSQGTFTSD-Bip(OMe)-(2,4-diCl-APPA)]"
14 pmol/ml/µg prt,11 pmol/ml/µg prt,7 pmol/ml/µg prt,3 pmol/ml/µg prt,0 pmol/ml/µg prt,H[Ac5c]QGTFTSD[Bip(2'-Et-4'-OMe)][AMCB] [Seq. ID. No. 28: H-(APP)-QGTFTSD-Bip(OMe)-(AMCB)]
9 pmol/ml/µg prt,6 pmol/ml/µg prt,5 pmol/ml/µg prt,3 pmol/ml/µg prt,0 pmol/ml/µg prt,"H[Aib][Leu(5,5,5,5',5',5'-F6)]G[aThr][αMePhe(2-F)][aThr]SD[Bip(2'-Et-4'-OMe)][2F‑APPA] (also: thioamide (C═S) bond Z10-Z11) [Seq. ID. No. 218: H-Aib-(Hfl)-G-T(allo)-(α-Me-2F-Phe)-T(allo)-SD-Bip(OMe)-(C═S)-(2F-APPA)]"
22 pmol/ml/µg prt,21 pmol/ml/µg prt,20 pmol/ml/µg prt,18 pmol/ml/µg prt,18 pmol/ml/µg prt,"H[Aib][CNB]GTFTSD[Bip(2'-Et-4'-OMe)][2,4‑diF‑APPA] (reading uncertain) [Seq. ID. No. 78: H-Aib-(CNB)-GTFTSD-Bip(OMe)-(2,4-diF-APPA)]"
